Experimental data published in IntAct's records for PubMed 18761085.

B1: Ras GTPase-activating protein 1 (Homo sapiens), P20936 (parent)
chain: MMAAEAGSEEGGPVTAGAGGGGAAAGSSAYPAVCRVKIPAALPVAAAPYPGLVETGVAGTLGGGAALGSEFLGAGSVAGALGGAGLTGGGTAAGVAGAAAGVAGAAVAGPSGDMALTKLPTSLLAETLGPGGGFPPLPPPPYLPPLGAGLGTVDEGDSLDGPEYEEEEVAIPLTAPPTNQWYHGKLDRTIAEERLRQAGKSGSYLIRESDRRPGSFVLSFLSQMNVVNHFRIIAMCGDYYIGGRRFSSLSDLIGYYSHVSCLLKGEKLLYPVAPPEPVEDRRRVRAILPYTKVPDTDEISFLKGDMFIVHNELEDGWMWVTNLRTDEQGLIVEDLVEEVGREEDPHEGKIWFHGKISKQEAYNLLMTVGQVCSFLVRPSDNTPGDYSLYFRTNENIQRFKICPTPNNQFMMGGRYYNSIGDIIDHYRKEQIVEGYYLKEPVPMQDQEQVLNDTVDGKEIYNTIRRKTKDAFYKNIVKKGYLLKKGKGKRWKNLYFILEGSDAQLIYFESEKRATKPKGLIDLSVCSVYVVHDSLFGRPNCFQIVVQHFSEEHYIFYFAGETPEQAEDWMKGLQAFCNLRKSSPGTSNKRLRQVSSLVLHIEEAHKLPVKHFTNPYCNIYLNSVQVAKTHAREGQNPVWSEEFVFDDLPPDINRFEITLSNKTKKSKDPDILFMRCQLSRLQKGHATDEWFLLSSHIPLKGIEPGSLRVRARYSMEKIMPEEEYSEFKELILQKELHVVYALSHVCGQDRTLLASILLRIFLHEKLESLLLCTLNDREISMEDEATTLFRATTLASTLMEQYMKATATQFVHHALKDSILKIMESKQSCELSPSKLEKNEDVNTNLTHLLNILSELVEKIFMASEILPPTLRYIYGCLQKSVQHKWPTNTTMRTRVVSGFVFLRLICPAILNPRMFNIISDSPSPIAARTLILVAKSVQNLANLVEFGAKEPYMEGVNPFIKSNKHRMIMFLDELGNVPELPDTTEHSRTDLSRDLAALHEICVAHSDELRTLSNERGAQQHVLKKLLAITELLQQKQNQYTKTNDVR
partner: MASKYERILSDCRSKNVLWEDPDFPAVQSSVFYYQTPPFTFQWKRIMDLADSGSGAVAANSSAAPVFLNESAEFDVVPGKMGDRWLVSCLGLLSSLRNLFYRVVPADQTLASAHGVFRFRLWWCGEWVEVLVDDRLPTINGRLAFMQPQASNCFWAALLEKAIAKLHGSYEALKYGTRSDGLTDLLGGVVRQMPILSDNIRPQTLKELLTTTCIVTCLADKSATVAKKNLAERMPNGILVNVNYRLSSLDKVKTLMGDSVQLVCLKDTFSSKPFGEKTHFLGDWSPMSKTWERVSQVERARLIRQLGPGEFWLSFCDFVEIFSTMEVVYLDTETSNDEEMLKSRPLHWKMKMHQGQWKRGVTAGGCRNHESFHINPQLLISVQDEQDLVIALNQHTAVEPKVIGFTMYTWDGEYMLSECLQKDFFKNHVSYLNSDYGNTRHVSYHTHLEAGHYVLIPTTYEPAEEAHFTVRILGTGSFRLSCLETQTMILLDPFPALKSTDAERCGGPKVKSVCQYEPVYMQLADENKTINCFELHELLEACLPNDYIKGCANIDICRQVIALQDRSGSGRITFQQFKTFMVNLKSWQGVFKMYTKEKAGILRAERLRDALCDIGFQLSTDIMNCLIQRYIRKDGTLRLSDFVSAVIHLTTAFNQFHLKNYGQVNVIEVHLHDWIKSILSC

Variants of: B1
Details: with canc_drome CalpC

| Variant | effect of a mutation on the interaction |
| --- | --- |
| W317K | disrupting interaction |
